Test results reported in publication PMC10453637.

System: O=C1CCCCC1
Assay: purified protein
Settings: apparent, 0.3 mM NADPH, 50 mM sodium phosphate pH 7.7, 25 °C

Ac CHMO (cyclohexanone monooxygenase) (Acinetobacter johnsonii)
Km: 4.09 ± 1.81 µM
